# According to the supplement of paper PMC10567573:
# B1: C10orf62 (parent)
# chain: GHSHHSHHGHPSHQSHSLPNRRH
# Variants of: B1
# Experiment: protein stability index of a GFP-peptide fusion (GPS, HEK-293T) (PSI 1-6); higher = more stable
# Details: c terminus: native
# 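Note: lentivirally expressed fusions sorted by FACS into six bins by GFP to DsRed ratio, PSI derived from sequencing read proportions per bin multiplied by bin number.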
row,Variant,protein stability index
1,H2M,3.72
2,H2Y,2.31
3,H2R,3.13
4,H2V,1.5
5,H2Q,3.15
6,N20G,4.22
7,N20V,3.13
8,N20A,2.97
9,N20T,3.28
10,N20H,2.44
11,N20S,1.35
12,N20I,2.29
13,N20Q,1.94
14,N20M,3.84
15,N20F,2.31
16,N20L,3.05
17,N20K,3.23
18,N20E,4.47
19,N20Y,2.58
20,N20P,2.07
21,N20D,3.58
22,L18N,2.88
23,L18A,3.18
24,L18V,2.52

row,Variant,protein stability index
1,L18T,2.27
2,L18R,4.23
3,L18C,2.94
4,L18P,2.11
5,L18M,2.16
6,L18W,3.46
7,L18H,4.06
8,L18E,3.19
9,L18F,3.24
10,L18K,1.51
11,L18G,2.38
12,L18D,1.85
13,L18Q,3.76
14,L18Y,2.08
15,L18I,3.49
16,P11W,2.03
17,P11K,4.06
18,P11A,3.2
19,P11D,2.88
20,P11E,2.1
21,P11I,4.55
22,P11Y,2.47
23,P11R,3.75
24,P11M,1.92

row,Variant,protein stability index
1,P11T,2.56
2,P11G,3.85
3,P11C,4.84
4,P11N,2.98
5,P11S,2.71
6,P11L,3.12
7,P11F,2.29
8,P11V,2.5
9,P11Q,3.94
10,H10C,3.79
11,H10G,2.34
12,H10Q,3.81
13,H10W,3.14
14,H10Y,3.67
15,H10A,3.41
16,H10R,3.48
17,H10M,2.98
18,H10E,1.48
19,H10D,1.74
20,H10K,2.86
21,H10I,2.96
22,H10S,2.08
23,H10P,2.43
24,H10T,2.53

row,Variant,protein stability index
1,S12R,4.62
2,S12Y,2.21
3,S12E,3
4,S12N,3.1
5,S12D,2.98
6,S12Q,1.6
7,S12T,2.57
8,S12I,4.18
9,S12A,2.22
10,S12L,2.34
11,S12W,3.49
12,S12G,2.75
13,S12P,3.31
14,S12M,2.27
15,S17M,3.01
16,S17T,4.17
17,S17V,1.69
18,S17I,2.64
19,S17D,2.43
20,S17P,4.04
21,S17G,3.77
22,S17C,2.65
23,S17Y,4.98
24,S17R,4.84

row,Variant,protein stability index
1,S17W,2.37
2,S17F,1.8
3,S17A,2.08
4,S17Q,2.82
5,S17E,2.14
6,S15N,3.44
7,S15D,2.07
8,S15R,3.2
9,S15K,3.18
10,S15Q,2.95
11,S15M,2.74
12,S15Y,2.6
13,S15H,2.48
14,S15T,2.91
15,S15E,3.39
16,S15W,2.92
17,S15A,3.68
18,S15P,3.1
19,S15G,3.98
20,S15F,2.19
21,S15V,3.59
22,G9W,3.1
23,G9M,3.76
24,G9V,3.15

row,Variant,protein stability index
1,G9L,2.26
2,G9P,1.91
3,G9C,4.56
4,G9K,3.76
5,G9A,2.81
6,G9I,4.14
7,G9F,3.35
8,G9Q,2.3
9,G9D,2.41
10,G9S,2.37
11,G9N,2.82
12,G9E,3.5
13,G9H,3.58
14,G9T,1.87
15,H7L,3.37
16,H7N,2.44
17,H7C,2.65
18,H7K,2.14
19,H7E,2.1
20,H7R,3.22
21,H7M,1.87
22,H7A,2.72
23,H7G,1.83
24,H7W,2.41

row,Variant,protein stability index
1,H7S,3.47
2,H7T,2.66
3,H7P,4.21
4,H7D,3.05
5,R21T,1.81
6,R21F,2.13
7,R21N,2.6
8,R21K,1.94
9,R21Q,2.38
10,R21V,1.39
11,R21A,1.97
12,R21H,2.67
13,R21M,2
14,R21S,1.67
15,R21Y,2.17
16,R21G,1.71
17,R21C,4.2
18,R21L,1.81
19,R21D,2.2
20,R21P,2.05
21,R21E,2.81
22,R21W,2.43
23,R21I,2.36
